Experimental findings from the DeepSol protein solubility set are described below.

A short description of the series: soluble on expression in E. coli; label from the status in PepcDB or PDB records.
For “MSLTTSFQDTEFFENQIFNTGKYNCLILRTAMNVLREHANLDIVYGGRAIRQLIYETVDTISAMEGVDKKATWLKLISLCDQFRKTGQESLSLAEYTEDFNFESIALQVDAFSLFAKPHDFQVFSVFLEDSEKGKLATILSSLTQKFSNKSRFKICQALLERGQISSSSATELYDEFIQSKVDDTEAIDFQNRLAEVSLKTIREMIFSKTREEDTEMRTASDSSVSPFLRLNAISSLRDIKDAHEKILIDMAIIFLLFDPREETVELLNAIVKRLSSYAMLEHIFCTCFNDQGTELESHSLSKPENSVFWISVADKFPALKQLINGGDMAGAFDYLVEKLDKSYDEVILNVVIELLNRGNGEVVRKNYIKSLNPNRLIDRILIGLVYLLTDDVDNFRATFEDFAETLLLQNEQNKTDAPLEDRLNYKKEVSDLLNAVFASSSNPAAQKSNYYHTLFALAKSQAKVLRHRSHENIISPNSTSSAEAKFIKAALLFEQKAISYLKQVVKSEHLKFNLDDAYLNVYELGLYLQDYKSVYESLQNLSPVADEYDYNYLMKRYLSRLISQGSISTIFPPNDNKLYRDNYLLIDSVLLDLANNELVLASALTFYEYLYSWRLLGSATKVDPTELTDKRGAAEALYMFITRFKLEQPDLLSSTSEQSEDIKQYKLKVLELYLMILNCLQSFESIEDQWLVKSQTNDSLAVVKLNEITLEYYNWLKEIKDEEGHHHHHH”, the “soluble on expression in E. coli” value is “not soluble”.
The entry for “QVQLQQPGAELVKPGASVKLSCKASGYTFTSDWIHWVKQRPGHGLEWIGEIIPSYGRANYNEKIQKKATLTADKSSSTAFMQLSSLTSEDSAVYYCARERGDGYFAVWGAGTTVTVSSAKTTPPSVYPLAPGSAAQTNSMVTLGCLVKGYFPEPVTVTWNSGSLSSGVHTFPAVLQSDLYTLSSSVTVPSSSWPSETVTCNVAHPASSTKVDKKIVPRD” is “soluble”; for “MRFSILGLAFASVLSGCVSTTPTTSALSSTDVTTFYDYQLHSPSGNALALQNLPDELKNADVILVGEWHTHAGIHRFQTDLLRQLSSGERRIALSMEQVTRDKQSVLDAYLKGEIGEQYFMSQSNAWPNYESDYRPLVEFAKQANLPVIAANTPKYIVRCIGRQGVDYLNKLDDEERSFVAENVNTANSPYKEKFMASMHHGKPEQTEKQYAAQVTWDETMAESIVKYLAQNPNAQVVHVAGKFHTEAGLGTAASILQRNPELKVVVVNPTSEISTNSPDYQLEVLEPPVRFVQDANRMAAYKHLSTRNDDLQCKLEHHHHHH” it is “soluble”; for “MKTPARRSKRVNQEESETNVTTRVVLRTRKTNCSKTRAARVRPDYPLTRTTSESEMKLMPPEFFQIDALDLAPRLLGKFMRRDNVVLRITEVEAYRPNDSACHGRFGVTPRTAPVFGPGGHAYVYLCYGLHMMLNIVADKEGVGAAVLIRSCSPVSGMETIQERRGLKTDKPVLLNGPGKVGQALGLSTEWSHHPLYSPGGLELLDGGEDVEKVMVGPRVGIDYALPEHVNALWRFAVADTPWISAPKNTLKPL” it is “soluble”.
In the case of “MGSDKIHHHHHHVIEVIRQRVLPHYGLEGNAAKVSPLGNGHINDTFLVTWDEGSMVLQRLNTSVFQAPWTLVENAELISRHLGEKEGKDYELKVVSPKTTAEGDLGIDLGEAGFWRAIRYLKHSNSIDVVGSEAQAEQAARAFGHFARALCDFDATRIGDVIPKFHFLPGRLAALEQAAADNKAGRLDTCREWVDFALCQRGLLDELAALEPKLPLRVCHNDTKINNMLFDKRDDSAMAIIDLDTCMKGHLMYDFGDMVRTFTSPEAEDSTALDKVRVRPEIFAAICRGYLAELGDVLEAAERESLWLGARIMCLMIGVRFLTDYLNGDLYFHVHREGHNLDRAANQFTLYQSLLTQADRLKPCIF”, the “soluble on expression in E. coli” value is on record as “not soluble”.
“MLHKEKPDYNRNQYGFYTLDQLVPDEHFLRQVEAVIDFDFIYDLVEDTYSSDNGRPSLDPVMLVKIPLIQCFYGIRSMRQTIKDIEVNTAYRWFLGLTLDDKVPHFTTYGKNYSRRFQEKGLIESIFTHIVGLCINTGLIDPTEIFIDGTHIKAAANNRKFINREVEKQAKFMSEQLEIEINRDREKHGKKPLGPAKELEPVAKKISTTDPESGWFHKGDHKEVFAYSAQVACDKYGWALAYSVEAGNIHDSQAFPALFAKLEPLKPQFIIADSGYNVPSIAKFLIDKEITPVLPYTRPRGKKDLLRPKELIYDEHFDCVICPEHQALTYRTTTREGYREYKSDPVICANCPLLSVCTTSKNYQKVVTRHIWKDYLAQPRNTTISAIRERKASPKWKIRLD”: the “soluble on expression in E. coli” value is “not soluble”.
